The source of these data is PMC7226614.

The target in the assay is Myc-GRAF3 (human) (UniProt A6NI28).
Sequence of UniProt A6NI28 (A6NI28 whole entry): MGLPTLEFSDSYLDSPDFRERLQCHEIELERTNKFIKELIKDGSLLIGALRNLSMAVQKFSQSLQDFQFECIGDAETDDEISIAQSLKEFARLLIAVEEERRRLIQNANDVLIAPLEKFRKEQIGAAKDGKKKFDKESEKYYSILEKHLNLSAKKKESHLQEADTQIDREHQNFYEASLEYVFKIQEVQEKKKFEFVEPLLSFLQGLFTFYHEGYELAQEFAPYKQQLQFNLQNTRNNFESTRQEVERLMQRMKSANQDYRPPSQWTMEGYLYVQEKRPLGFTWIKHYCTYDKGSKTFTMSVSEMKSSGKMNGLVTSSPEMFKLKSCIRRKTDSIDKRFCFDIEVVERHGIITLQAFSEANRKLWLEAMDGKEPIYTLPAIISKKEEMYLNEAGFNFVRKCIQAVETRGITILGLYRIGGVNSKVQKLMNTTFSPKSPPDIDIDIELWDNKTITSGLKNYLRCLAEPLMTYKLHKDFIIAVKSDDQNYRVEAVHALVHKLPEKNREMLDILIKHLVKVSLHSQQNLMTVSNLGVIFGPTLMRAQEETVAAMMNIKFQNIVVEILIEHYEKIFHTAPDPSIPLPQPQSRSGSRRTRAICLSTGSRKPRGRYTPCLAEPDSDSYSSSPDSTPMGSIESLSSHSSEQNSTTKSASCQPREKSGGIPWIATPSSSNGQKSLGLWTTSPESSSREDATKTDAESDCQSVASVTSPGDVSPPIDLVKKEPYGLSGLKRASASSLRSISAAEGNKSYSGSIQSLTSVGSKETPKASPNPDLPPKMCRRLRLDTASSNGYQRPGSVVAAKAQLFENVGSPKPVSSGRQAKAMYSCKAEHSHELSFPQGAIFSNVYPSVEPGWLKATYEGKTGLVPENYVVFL

Take Flag-GRAF3 Bar-PH (domain or fragment): the RhoA-dependent actin stress fibers (phalloidin staining) in RaAoSMC; cells with reduced stress fibers: 58/59 with Myc-GRAF3 alone, 5/72 with Myc-GRAF3 and Flag-BAR-PH was 5 of 72 cells.
